Results taken from US7262005.

Molecular target: Fas receptor (UniProt P25445)
Assay: cell-based or functional assay

Fas receptor, sequence (P25445 26-335 limits assumed): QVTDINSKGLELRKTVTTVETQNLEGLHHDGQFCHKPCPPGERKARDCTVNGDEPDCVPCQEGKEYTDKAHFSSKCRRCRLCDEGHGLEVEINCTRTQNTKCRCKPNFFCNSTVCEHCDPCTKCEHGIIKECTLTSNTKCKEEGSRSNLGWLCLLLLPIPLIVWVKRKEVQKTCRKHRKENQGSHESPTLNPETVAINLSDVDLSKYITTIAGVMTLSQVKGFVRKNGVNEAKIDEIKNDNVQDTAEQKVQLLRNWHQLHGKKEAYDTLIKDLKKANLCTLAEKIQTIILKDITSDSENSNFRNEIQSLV

CH-11 anti-Fas IgM (antibody)
460/530 emission ratio, + αFas/+ chx, Jurkat cells expressing 2XUb-DEVD-Bla, 50 ng/ml anti-Fas IgM for 6 hours (460/530 emission ratio): 0.67
EC50 of caspase activation in Jurkat cells expressing 2XUb-DEVD-Bla (β-lactamase activity, CCF2 460/530 nm ratio after cycloheximide chase): 0.011 µg/mL
